Assay results reported in PMC4117941 (Genes & Development, 2014).

Tests used:
[1] = target: Mcm3 (HA-Mcm3, subunit of the purified MCM2–7 hexamer) (S. cerevisiae, UniProt P24279 1-971); assay: EM, three-dimensional reconstruction
[2] = target: T1, Mcm4 (subunit of the purified MCM2–7 hexamer) (S. cerevisiae, UniProt P30665 1-933); assay: EM, three-dimensional reconstruction
T1 sequence: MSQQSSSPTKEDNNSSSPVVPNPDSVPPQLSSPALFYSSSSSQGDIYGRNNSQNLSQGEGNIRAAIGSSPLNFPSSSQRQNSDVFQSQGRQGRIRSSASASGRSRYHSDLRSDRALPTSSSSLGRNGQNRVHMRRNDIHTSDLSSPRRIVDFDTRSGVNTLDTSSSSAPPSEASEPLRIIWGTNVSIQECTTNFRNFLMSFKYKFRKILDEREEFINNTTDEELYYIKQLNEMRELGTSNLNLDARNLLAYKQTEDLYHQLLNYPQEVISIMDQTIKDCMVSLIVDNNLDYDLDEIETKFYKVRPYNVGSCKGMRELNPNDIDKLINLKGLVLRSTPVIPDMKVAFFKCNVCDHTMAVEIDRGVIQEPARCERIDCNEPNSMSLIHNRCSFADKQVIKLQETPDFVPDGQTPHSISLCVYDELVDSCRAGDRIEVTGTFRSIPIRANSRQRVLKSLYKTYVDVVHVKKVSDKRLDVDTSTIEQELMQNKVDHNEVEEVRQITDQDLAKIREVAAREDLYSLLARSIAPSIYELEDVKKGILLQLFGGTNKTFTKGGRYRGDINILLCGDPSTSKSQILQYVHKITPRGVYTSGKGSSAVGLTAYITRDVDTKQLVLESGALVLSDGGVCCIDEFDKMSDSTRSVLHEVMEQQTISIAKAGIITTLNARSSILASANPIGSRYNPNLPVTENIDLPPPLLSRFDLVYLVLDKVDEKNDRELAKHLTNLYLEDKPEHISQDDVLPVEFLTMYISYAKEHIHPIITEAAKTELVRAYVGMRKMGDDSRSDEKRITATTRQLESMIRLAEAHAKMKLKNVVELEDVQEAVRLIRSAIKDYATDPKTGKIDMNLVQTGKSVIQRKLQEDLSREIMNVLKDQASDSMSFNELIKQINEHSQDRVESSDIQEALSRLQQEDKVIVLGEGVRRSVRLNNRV

Chain of Mcm3 (HA-Mcm3, subunit of the purified MCM2–7 hexamer) (P24279 whole entry): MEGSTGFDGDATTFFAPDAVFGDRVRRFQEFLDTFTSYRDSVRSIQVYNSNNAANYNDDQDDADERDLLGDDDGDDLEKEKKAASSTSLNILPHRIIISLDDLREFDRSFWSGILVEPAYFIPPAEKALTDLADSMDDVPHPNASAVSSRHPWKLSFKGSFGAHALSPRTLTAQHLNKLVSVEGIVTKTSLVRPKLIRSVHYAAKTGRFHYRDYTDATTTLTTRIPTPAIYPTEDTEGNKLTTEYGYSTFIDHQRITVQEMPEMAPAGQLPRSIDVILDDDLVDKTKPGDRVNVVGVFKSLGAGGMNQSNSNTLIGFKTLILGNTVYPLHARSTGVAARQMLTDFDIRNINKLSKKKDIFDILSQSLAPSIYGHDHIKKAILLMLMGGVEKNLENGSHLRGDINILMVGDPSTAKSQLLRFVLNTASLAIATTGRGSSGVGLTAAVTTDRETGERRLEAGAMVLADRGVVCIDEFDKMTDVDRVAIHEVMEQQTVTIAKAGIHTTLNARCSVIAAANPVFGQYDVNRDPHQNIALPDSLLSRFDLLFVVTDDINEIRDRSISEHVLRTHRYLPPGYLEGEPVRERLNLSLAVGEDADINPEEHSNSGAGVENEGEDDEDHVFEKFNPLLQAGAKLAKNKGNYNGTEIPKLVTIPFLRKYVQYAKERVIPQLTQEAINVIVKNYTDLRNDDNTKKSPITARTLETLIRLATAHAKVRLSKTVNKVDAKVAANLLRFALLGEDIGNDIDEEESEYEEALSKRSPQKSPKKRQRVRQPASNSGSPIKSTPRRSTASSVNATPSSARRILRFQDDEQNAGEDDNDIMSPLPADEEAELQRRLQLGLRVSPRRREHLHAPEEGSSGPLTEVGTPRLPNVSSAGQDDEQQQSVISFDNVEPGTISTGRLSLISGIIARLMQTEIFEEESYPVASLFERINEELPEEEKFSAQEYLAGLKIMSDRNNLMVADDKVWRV

binding result [1]: binds | binding result [2]: binds
B1: Mcm7 (subunit of the purified MCM2–7 hexamer) (natural protein)
chain: MSAALPSIQLPVDYNNLFNEITDFLVTFKQDTLSSDATRNENEDENLDAENIEQHLLEKGPKYMAMLQKVANRELNSVIIDLDDILQYQNEKFLQGTQADDLVSAIQQNANHFTELFCRAIDNNMPLPTKEIDYKDDVLDVILNQRRLRNERMLSDRTNEIRSENLMDTTMDPPSSMNDALREVVEDETELFPPNLTRRYFLYFKPLSQNCARRYRKKAISSKPLSVRQIKGDFLGQLITVRGIITRVSDVKPAVEVIAYTCDQCGYEVFQEVNSRTFTPLSECTSEECSQNQTKGQLFMSTRASKFSAFQECKIQELSQQVPVGHIPRSLNIHVNGTLVRSLSPGDIVDVTGIFLPAPYTGFKALKAGLLTETYLEAQFVRQHKKKFASFSLTSDVEERVMELITSGDVYNRLAKSIAPEIYGNLDVKKALLLLLVGGVDKRVGDGMKIRGDINVCLMGDPGVAKSQLLKAICKISPRGVYTTGKGSSGVGLTAAVMKDPVTDEMILEGGALVLADNGICCIDEFDKMDESDRTAIHEVMEQQTISISKAGINTTLNARTSILAAANPLYGRYNPRLSPLDNINLPAALLSRFDILFLMLDIPSRDDDEKLAEHVTYVHMHNKQPDLDFTPVEPSKMREYIAYAKTKRPVMSEAVNDYVVQAYIRLRQDSKREMDSKFSFGQATPRTLLGIIRLSQALAKLRLADMVDIDDVEEALRLVRVSKESLYQETNKSKEDESPTTKIFTIIKKMLQETGKNTLSYENIVKTVRLRGFTMLQLSNCIQEYSYLNVWHLINEGNTLKFVDDGTMDTDQEDSLVSTPKLAPQTTASANVSAQDSDIDLQDA
